According to paper PMC2683983 (Molecular pharmaceutics, 2009):
Numbered stars: 1 amine (or outer) side, 2 acyl side, 3 side chain; on linkers, the order of the positions; unused ones are H or OH. Bridge positions count the residues as written; N and C are the ends. Peptide text beside a SMILES is read from it. * marks the point of attachment. Doxorubicin(3'-N) = COc1cccc2c1C(=O)c1c(O)c3c(c(O)c1C2=O)C[C@@](O)(C(=O)CO)C[C@@H]3O[C@H]1C[C@H](N*)[C@H](O)[C@H](C)O1; Suc = O=C(CCC(=O)[*:2])[*:1]; AEEEA = NCCOCCOCCOCC(=O)O

Tests used:
[1] = pH 7.4; cited from earlier work
HL-60 cells = details: HL-60, 10 μM, 1 h; for intracellular fluorescence distribution / uptake at 4 °C / intracellular fluorescence distribution at 37 °C: RPMI 1640, epifluorescence, rhodamine filter; for entry mechanism into cells: 37 °C compared with 4 °C
[2] = test system: ICAM-1/LFA-1-mediated heterotypic T-cell adhesion; details: cited from earlier work
I-domain of LFA-1 = details: cited from earlier work

For COc1cccc2c1C(=O)c1c(O)c3c(c(O)c1C2=O)C[C@@](O)(C(=O)CO)C[C@@H]3O[C@H]1C[C@H](N)[C@H](O)[C@H](C)O1 [DOX, Doxorubicin, reference compound], the distribution ratio [1] is given as 1.2, the “intracellular fluorescence distribution / uptake at 4 °C” value (HL-60 cells) is given as “uptake of DOX was suppressed” and the “intracellular fluorescence distribution at 37 °C” value (HL-60 cells) is given as “localized inside the nucleus”.
In the case of COc1cccc2c1C(=O)c1c(O)c3c(c(O)c1C2=O)C[C@@](O)(C(=O)CO)C[C@@H]3O[C@H]1C[C@H](NC(=O)CCC(=O)NCCOCCOCCOCC(=O)N[C@H]2CSSC[C@@H](C(=O)O)NC(=O)[C@H](C(C)C)NC(=O)[C@H](CO)NC(=O)CNC(=O)CNC(=O)[C@H](CCCNC(=N)N)NC(=O)[C@@H]3CCCN3C2=O)[C@H](O)[C@H](C)O1 [DOX-PEGcIBR7] ({Doxorubicin(3'-N)-Suc-AEEEA}-CPRGGSVC-OH; disulfide 1-8), the “intracellular fluorescence distribution / uptake at 4 °C” value (HL-60 cells) is reported as “diffuse fluorescence of the conjugates inside the cell cytosol”, the “entry mechanism into cells” value (HL-60 cells) is reported as “passive diffusion” and the “intracellular fluorescence distribution at 37 °C” value (HL-60 cells) is reported as “diffuse fluorescence distribution pattern in the cellular cytoplasm”.
With COc1cccc2c1C(=O)c1c(O)c3c(c(O)c1C2=O)C[C@@](O)(C(=O)CO)C[C@@H]3O[C@H]1C[C@H](NC(=O)CCC(=O)N[C@H]2CSSC[C@@H](C(=O)O)NC(=O)[C@H](C(C)C)NC(=O)[C@H](CO)NC(=O)CNC(=O)CNC(=O)[C@H](CCCNC(=N)N)NC(=O)[C@@H]3CCCN3C2=O)[C@H](O)[C@H](C)O1 [DOX-cIBR7] ({Doxorubicin(3'-N)-Suc}-CPRGGSVC-OH; disulfide 1-8) the “intracellular fluorescence distribution / uptake at 4 °C” value (HL-60 cells) was “diffuse fluorescence of the conjugates inside the cell cytosol”, the “entry mechanism into cells” value (HL-60 cells) was “passive diffusion” and the “intracellular fluorescence distribution at 37 °C” value (HL-60 cells) was “diffuse fluorescence distribution pattern in the cellular cytoplasm”.
For CNGRC [DOX-CNGRC], the distribution ratio [1] is listed as 5.3.
For cyclo(1,6)PRGGKV (head to tail), the “peptide activity after introduction of Lys5 in place of Ser5” value [2] is listed as “lower peptide activity”.
In the case of cyclo(1,8)CPRGGSVC (disulfide) [cIBR7], the “activity to inhibit heterotypic T-cell adhesion compared with parent cIBR” value [2] is given as “better activity” and the “binding affinity to the isolated I-domain compared with cIBR” value (I-domain of LFA-1) is given as “higher”.
